# B1: HPK1 kinase domain (KD TSEE WT) [not stated] / HPK1 intact citron homology domain fragment (C428-E821), untagged [not stated] (parent)
# chain 1: CASGPPPNSPRPGPPPSTSSPHLTAHSEPSLWNPPSRELDKPPLLPPKKEKMKRKGCALLVKLFNGCPLRIHSTAAWTHPSTKDQHLLLGAEEGIFILNRNDQEATLEMLFPSRTTWVYSINNVLMSLSGKTPHLYSHSILGLLERKETRAGNPIAHISPHRLLARKNMVSTKIQDTKGCRACCVAEGASSGGPFLCGALETSVVLLQWYQPMNKFLLVRQVLFPLPTPLSVFALLTGPGSELPAVCIGVSPGRPGKSVLFHTVRFGALSCWLGEMSTEHRGPVQVTQVEEDMVMVLMDGSVKLVTPEGSPVRGLRTPEIPMTEAVEAVAMVGGQLQAFWKHGVQVWALGSDQLLQELRDPTLTFRLLGSPRPVVVETRPVDDPTAPSNLYIQE
# chain 2: DVVDPDIFNRDPRDHYDLLQRLGGGTYGEVFKARDKVSGDLVALKMVKMEPDDDVSTLQKEILILKTCRHANIVAYHGSYLWLQKLWICMEFCGAGSLQDIYQVTGSLSELQISYVCREVLQGLAYLHSQKKIHRDIKGANILINDAGEVRLADFGISAQIGAELARRLEFIGTPYWMAPEVAAVALKGGYNELCDIWSLGITAIELAELQPPLFDVHPLRVLFLMTKSGYQPPRLKEKGKWSAAFHNFIKVTLTKSPKKRPSATKMLSHQLVSQPGLNRGLILDLLDKLKN
# Variants of: B1
# Assay: SPR
# Conditions: with HPK1 intact citron homology domain fragment (C428-E821), left plot, plateau of the last (highest) of five successive CHD injections, about 800-900 s, CHD concentrations not given, parent: 30, read off a plot
row,response (Response Units),Variant
1,43,chain 2 DVVDPDIFNRDPRDHYDLLQRLGGGTYGEVFKARDKVSGDLVALKMVKMEPDDDVSTLQKEILILKTCRHANIVAYHGSYLWLQKLWICMEFCGAGSLQDIYQVTGSLSELQISYVCREVLQGLAYLHSQKKIHRDIKGANILINDAGEVRLADFGISAQIGAELARRLEFIGTPYWMAPEVAAVALKGGYNELCDIWSLGITAIELAELQPPLFDVHPKRVLFLMTKSGYQPPRLKEKGKWSAAFHNFIKVTLTKSPKKRPSATKMLSHQLVSQPGLNRGLILDLLDKLKN [chain 2 L220K]

# Source: article PMC11066036
